Source: PMC6133441

Biological target: human recombinant galectin-9, medium isoform (gal-9M) (human) (UniProt O00182)
Assay: SPR; Biacore T200; gal-9M covalently bound to a CM5 chip (NHS/EDC, 10 μg/mL, pH 5, acetate buffer); Gal-Nab1 and Gal-Nab2 as analytes, 1.5 to 400 nM, 40 μL/min, 400 s, albumin 0.1 mg/mL and tween 0.05%; dissociation 500 s; the paper says the KD reflects avidity rather than affinity (apparent)

Chain of human recombinant galectin-9, medium isoform (gal-9M) (human) (O00182 other isoform, or with tags, fused parts or gaps): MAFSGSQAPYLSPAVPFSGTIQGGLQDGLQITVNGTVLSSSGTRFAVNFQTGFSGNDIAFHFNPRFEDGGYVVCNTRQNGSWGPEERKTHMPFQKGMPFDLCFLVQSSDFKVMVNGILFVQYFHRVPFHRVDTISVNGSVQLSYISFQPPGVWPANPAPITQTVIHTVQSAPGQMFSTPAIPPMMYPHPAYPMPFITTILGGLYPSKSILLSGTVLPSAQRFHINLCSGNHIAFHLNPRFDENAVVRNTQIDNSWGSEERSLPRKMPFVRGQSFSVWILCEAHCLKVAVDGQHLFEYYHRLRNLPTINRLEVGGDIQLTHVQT

- Kd: 4.34 nM
- koff: 0.000115 s⁻¹
- kon: 26500 M⁻¹ s⁻¹
- t1/2: 2.07 h
B1: Gal-Nab1 (antibody, V domains shown)
VH: KVQLQQSGAELVKPGASVKLSCKASGYTFTDYTIHWVKQRSGQGLEWIGWFYPGSHSIKYNEQFKDRATLTADKSSSTVYMELSRLTSEDSAVYFCTRHGGYDGFDYWGQGTTLTVSS
VL: DIVMSQSPSSLAVSVGEKITMSCKSSQSLFYSTNQKNYLAWYQQKPGQSPKLLIYWASTRESGVPDRFTGSGSGTDFTLTISSVKAEDLAVYYCQQYYYFPYTFGGGTKLEIK
